Reference: PMC11813886
Residue numbers refer to the chain shown, from its start. Names and notes keep the numbering of the source. Each block holds one binder with its values, some of them ahead of it.

What was measured:
human C3b = experiment: ELISA; details: chain shown with the change; human C3b-coated plates; value read at 50 nM protein (highest concentration); parent: est. 0.69; read off a plot
FHR-B_(Y162H) = target: T1, FHR-B_(Y162H); experiment: AUC (analytical ultracentrifugation, sedimentation velocity), self-association (dimerization); details: chain shown with the change; PBS pH 7; parent: est. 1.0; read off a plot
T1 chain: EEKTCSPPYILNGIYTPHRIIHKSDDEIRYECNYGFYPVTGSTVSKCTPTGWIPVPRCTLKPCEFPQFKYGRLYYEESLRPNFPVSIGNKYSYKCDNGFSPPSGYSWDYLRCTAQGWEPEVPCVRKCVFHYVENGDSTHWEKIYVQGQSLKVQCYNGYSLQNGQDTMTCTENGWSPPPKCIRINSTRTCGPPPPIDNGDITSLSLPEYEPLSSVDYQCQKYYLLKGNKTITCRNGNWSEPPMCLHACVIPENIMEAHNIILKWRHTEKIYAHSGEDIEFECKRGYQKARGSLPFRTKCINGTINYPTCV

FHR-B_(T161A,I166V) = target: T2, FHR-B_(T161A,I166V); experiment: as above; details: chain shown with the change; PBS pH 7; parent: est. 1.0; read off a plot
T2 chain: T1 chain with T138A, H139Y, I143V

Chain of human C3b (chain, as listed by the source, chain 1 of 2): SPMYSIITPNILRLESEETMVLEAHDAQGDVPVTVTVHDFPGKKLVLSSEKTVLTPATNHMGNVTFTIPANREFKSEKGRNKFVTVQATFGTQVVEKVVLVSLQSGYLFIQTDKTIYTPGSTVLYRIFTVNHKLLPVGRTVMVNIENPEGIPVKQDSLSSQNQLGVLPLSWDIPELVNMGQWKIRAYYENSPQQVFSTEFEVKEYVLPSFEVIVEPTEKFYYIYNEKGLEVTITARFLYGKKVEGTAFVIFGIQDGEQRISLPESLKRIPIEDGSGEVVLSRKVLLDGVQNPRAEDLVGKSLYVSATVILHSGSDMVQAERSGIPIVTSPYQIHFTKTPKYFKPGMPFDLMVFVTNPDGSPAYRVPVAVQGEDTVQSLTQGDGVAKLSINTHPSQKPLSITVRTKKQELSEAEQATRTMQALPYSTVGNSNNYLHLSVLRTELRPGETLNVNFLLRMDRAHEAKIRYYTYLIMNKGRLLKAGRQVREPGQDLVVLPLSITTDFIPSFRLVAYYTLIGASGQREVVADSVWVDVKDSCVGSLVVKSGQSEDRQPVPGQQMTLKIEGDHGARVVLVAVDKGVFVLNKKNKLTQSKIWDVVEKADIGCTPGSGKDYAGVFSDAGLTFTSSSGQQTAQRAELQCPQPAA
Chain of human C3b (chain, as listed by the source, chain 2 of 2): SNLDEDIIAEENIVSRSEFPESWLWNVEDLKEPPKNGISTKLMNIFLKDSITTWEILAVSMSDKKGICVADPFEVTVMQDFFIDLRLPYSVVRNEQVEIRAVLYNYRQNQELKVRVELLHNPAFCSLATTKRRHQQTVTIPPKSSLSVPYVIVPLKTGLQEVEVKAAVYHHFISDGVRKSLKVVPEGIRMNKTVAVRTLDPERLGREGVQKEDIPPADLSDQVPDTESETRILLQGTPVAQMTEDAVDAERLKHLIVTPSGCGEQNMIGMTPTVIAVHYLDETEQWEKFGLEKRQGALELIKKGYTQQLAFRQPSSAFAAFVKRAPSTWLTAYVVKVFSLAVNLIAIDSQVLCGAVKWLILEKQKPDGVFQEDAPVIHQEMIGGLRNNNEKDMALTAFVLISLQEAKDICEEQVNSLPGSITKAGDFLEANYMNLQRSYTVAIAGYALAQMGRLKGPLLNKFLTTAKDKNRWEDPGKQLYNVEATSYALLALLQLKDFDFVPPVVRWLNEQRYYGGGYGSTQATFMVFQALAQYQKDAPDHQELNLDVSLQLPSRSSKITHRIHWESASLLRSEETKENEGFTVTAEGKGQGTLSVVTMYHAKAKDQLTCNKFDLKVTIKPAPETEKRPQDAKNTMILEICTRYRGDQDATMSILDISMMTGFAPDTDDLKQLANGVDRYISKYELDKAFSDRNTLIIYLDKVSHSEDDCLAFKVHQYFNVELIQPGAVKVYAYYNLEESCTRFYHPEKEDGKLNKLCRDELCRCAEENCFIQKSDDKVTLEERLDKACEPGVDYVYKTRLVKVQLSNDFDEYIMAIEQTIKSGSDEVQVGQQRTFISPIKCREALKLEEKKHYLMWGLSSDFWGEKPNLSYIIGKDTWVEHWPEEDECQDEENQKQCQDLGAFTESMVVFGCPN

response (human C3b): 0.66 Abs 405nm
other: c(S) height of dimer peak (normalised distribution) (FHR-B_(Y162H)): 0.09
B1: recombinant form of the native mouse FHR-B protein (rFHR-B) Y162H (protein)
chain: T1 chain

response (human C3b): 0.66 Abs 405nm
other: c(S) height of dimer peak (normalised distribution) (FHR-B_(T161A,I166V)): 0.13
B2: recombinant form of the native mouse FHR-B protein (rFHR-B) T161A; I166V (protein)
chain: T1 chain with T138A, H139Y, I143V
